Test results taken from article PMC11014345, “Lethal perturbation of an Escherichia coli regulatory network is triggered by a restriction-modification system's regulator and can be mitigated by excision of the cryptic prophage Rac” (Nucleic Acids Research, 2023).

Molecular target: the molecule itself
Assay: SEC; Superdex 75 10/300 GL, 0.5 mg protein loaded, 50 mM potassium phosphate buffer pH 7.0, 150 mM NaCl, 0.5 ml/min; column calibrated with marker proteins; self-association of RacR (octamer)

B1: C-terminally-6His-tagged RacR repressor (natural protein, Escherichia coli K-12 (Rac prophage), UniProt P76062 1-158, looked up)
chain: MLSGKDLGRAIEQAINKKIASGSVKSKAEVARHFKVQPPSIYDWIKKGSISKDKLPELWRFFSDVVGPEHWGLNEYPIPTPTNSDTKSELLDINNLYQAASDEIRAIVAFLLSGNATEPDWVDHDVRAYIAAMEMKVGKYLKALESERKSQNITKTGT
notes: RacR repressor of the cryptic Rac prophage of Escherichia coli K-12; predicted size of the 6His-tagged monomer 18.5 kDa; not shown: 6His, C-terminal, kept
stoichiometry N: 8
